Results: the supplement of paper PMC9170038

What was measured:
MS2 coat protein [1] = assay: apparent KD of MS2 coat protein; higher = weaker reporter binding; settings: Eterna round: R101
Description: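 RNA-MaP: designed FMN/MS2 RNA switches (84 nt design region) are transcribed on-chip within common flanks and titrated with SNAP-549-labelled MS2 coat protein (about 1-3000 nM) in 100 mM Tris pH 7.5, 80 mM KCl, 4 mM MgCl2, without or with 200 uM FMN. Median apparent KD per design; activation ratio = KD,OFF / KD,ON.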

MS2 coat protein [2] = assay: apparent KD of MS2 coat protein, switch OFF state (with FMN for OFF switches, without FMN for ON switches); designed switch direction (-1 OFF switch, 1 ON switch): 1; higher = weaker reporter binding; settings: FMN input: 0 or 200 uM; Eterna round: R93 (includes R88 designs)
Procedure, shortened: (§1)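 On-chip transcription from Illumina sequencing clusters produced the designed RNA switches. These were titrated with SNAP-549-labelled MS2 coat protein (twofold steps, 0.7 or 1.5 nM to 3 µM) in 100 mM Tris-HCl pH 7.5, 80 mM KCl, 4 mM MgCl2, with or without constant ligand. The apparent KD given is the per-design median of normalised cluster binding-curve fits.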

MS2 coat protein [3] = assay: apparent KD of MS2 coat protein, switch ON state; designed switch direction (-1 OFF switch, 1 ON switch): 1; higher = weaker reporter binding; settings: FMN input: 0 or 200 uM; Eterna round: R93 (includes R88 designs)
Procedure, shortened: as §1

Sequence	apparent KD of MS2 coat protein (MS2 coat protein [1]; input ligand: FMN 200 uM)	apparent KD of MS2 coat protein (MS2 coat protein [1]; input ligand: none)	apparent KD of MS2 coat protein (MS2 coat protein [2])	apparent KD of MS2 coat protein (MS2 coat protein [3])
AAAUAAACUCAAGGAUAUCAGUGGCAAAGCCACUGAGAAGGUGAGGAUCACCCACCUAAGAUCACAGGUGACGAAAGUCACCUG [#SharedSequence ExNG1 - 37] (puzzle (switch architecture): Exclusion NG 1)	17.6 nM	11.2 nM		
UUGGUUGUCGUAGGAUAUGUAGGAUAUUCCUACAUGAGGAUCACCCAUGUUCGCAUGGAAGAAGGACAGAAGGACGAUGACCAU [salish99_SSNG2_001 #endbits investigation] (puzzle (switch architecture): Same State NG 2)	9.52 nM	1280 nM		
UGCUAACUGUAGAAGGGUGACAUGAGGAUCACCCAUGUGCACGCGCGCUUUACGGCGCGCGUGCCACAGGAUAUACAGUUGAGU [Erora] (puzzle (switch architecture): Inverted Same State NG 2)	55.1 nM	43.1 nM		
GGAGACCUUACAGGAUAUGCUGGACUUUGUCCAGCAGAAGGGUGAAUACAUGAGGAUCACCCAUGUAUGGUCUCCAAAUUUAAU [jl-ssng1-3.05 #GC_VS_GU_SWITCHING] (puzzle (switch architecture): Same State NG 1)	121 nM	52.2 nM		
AAUAAAACUCAAGGAUAUCAGUGGCAAAGCCACUGAGAAGGUGAGGAUCACCCACCUACGUGACGCUGGAAACAGCGUCACGAA [#SharedSequence ExNG1 - 33] (puzzle (switch architecture): Exclusion NG 1)	36.3 nM	15.8 nM		
AAGUGAAAUCAGAAGGGCUCCAGCAAAGCUGGAGCAGGAUAUGAGGAUCACCCAUAUCACCUGACGGUCGAAACGACCGUCAGG [#SharedSequence - IExNG1: 5-1] (puzzle (switch architecture): Inverted Exclusion NG 1)	147 nM	21.2 nM		
AAUAUACAUGAGGAUCACCCAUGUGAAAAUAUGGGAGGAUAUCGGAAAAAAAAAAAAAAACGAGAAGGCCCAAAAA [SS! 1 MT 13]			119 nM	20.8 nM
AGAAAACAUGAGGAUCACCCAUGUUAGUGUCAUUAAGGAUAUAGGCUUAAGAAUCUGAGACUAGAAGGUGGUGCGC [Orbeus]			30.8 nM	21.9 nM
AAAAGACAUGAGGAUCACCCAUGUAAAAACGUAGGAGGAUAUGUCUUGAAAAAAGACUUGACAGAAGGCCUGUGUC [SS1 - 53]			34.6 nM	23 nM
AGGAGACAUGAGGAUCACCCAUGUGAGAAGAGGCGAGGAUAUCGAAAGAAAGAAGAGAAACGAGAAGGCGCGAGGG [salish99-SS1-027]			39.2 nM	26.9 nM
GGAGCCGGCACCGAGGAUAUUCAUAUUAAAACAUGAGGAUCACCCAUGUAGGCCAGAAGGCCUUGGGAGAAGGCGGAUCGGCUCG [Xeonanis]			481 nM	29.9 nM
GCCUAACAUGAGGAUCACCCAUGUAGUGGGUUGUUAGGAUAUGGACCACAAAACGCGGUACCAGAAGGAAUAGAAA [Atbima]			538 nM	393 nM
CAUAGACAUGAGGAUCACCCAUGUAGAAUUAUGGGAGGAUAUACAAAGACGAGAGUCAGAGUAGAAGGCCUAGGAA [salish99-ss1-160]			38.6 nM	20.2 nM
UGUUCGAGUAGUGAGGAUAUUCAUGGGCCCACAUGAGGAUCACCCAUGUAAUGGACCGGGCCGAAGGAGAAGGCGCGUAAAAUUA [Atceve]			140 nM	38.2 nM
AAAUAAAGGACUGAGGAUAUACCACAUGAAACAUGAGGAUCACCCAUGUAGAAAUACAGAGGGUGGUAGAAGGCAGUCCACAAAC [Same State 2.5h ( so lets mod hyphema)]			57.2 nM	30.1 nM
UCAAAACAUGAGGAUCACCCAUGUAGUCUAAAGCGAGGAUAUGGGUUUCUUUAAAGAGUACCAGAAGGCGCCAAAA [Entibi]			60.9 nM	23.3 nM
AUGAAGGAGAGAGAGGAUAUCCAAAGGGAAACAUGAGGAUCACCCAUGUAGAAGGUAGGAAAUUGGGAGAAGGCUCAAGAGAGAG [salish99-ss2-111]			26.9 nM	25.4 nM
GGAGCCGGUACUGAGGAUAUUCAUAUUAAAACAUGAGGAUCACCCAUGUAGGCCAGAAAGCCUUGGGAGAAGGCAGAUCGGCUCG [Bienuslete]			126 nM	17.8 nM
AAUAUAUUAAGUGAGGAUAUCAAGAAAAAAACAUGAGGAUCACCCAUGUGGGAAACACGAUAGGGUGAGAAGGUACUUAAUAUAU [Samwise Clockwise 19 - Jieux - Same State 2]			42.5 nM	84.5 nM
